Measurements as given in publication PMC6127106, “Apolipoprotein A-IV binds αIIbβ3 integrin and inhibits thrombosis” (Nature Communications, 2018).

Biological target: purified human platelet αIIbβ3 integrin (human, UniProt P05106 27-788)
Assay: ELISA; competition: αIIbβ3 (1 µg) immobilised on the plate, Fg 1 µM with apoA-IV 0–10 µM; TBS, 0.05% Tween-20, 1 mM each MgCl2, MnCl2, CaCl2; 1 h at 37 °C; anti-fibrinogen IgG and anti-mouse IgG-HRP
Details: both partners purified

B1: recombinant human apoA-IV (ligand, UniProt P06727 21-396, looked up)
chain: EVSADQVATVMWDYFSQLSNNAKEAVEHLQKSELTQQLNALFQDKLGEVNTYAGDLQKKLVPFATELHERLAKDSEKLKEEIGKELEELRARLLPHANEVSQKIGDNLRELQQRLEPYADQLRTQVSTQAEQLRRQLTPYAQRMERVLRENADSLQASLRPHADELKAKIDQNVEELKGRLTPYADEFKVKIDQTVEELRRSLAPYAQDTQEKLNHQLEGLTFQMKKNAEELKARISASAEELRQRLAPLAEDVRGNLRGNTEGLQKSLAELGGHLDQQVEEFRRRVEPYGENFNKALVQQMEQLRQKLGPHAGDVEGHLSFLEKDLRDKVNSFFSTFKEKESQDKTLSLPELEQQQEQQQEQQQEQVQMLAPLES
notes: apolipoprotein A-IV, human; also called rH-ApoA-IV; rH-apoA-IV; source: E. coli, purified (His GraviTrap IMAC, tag cut with TEV protease); not shown: His6, N-terminal, cleaved
IC50: 1320 nM
